In patent US20080199851A1:

Molecular target: Inactivated influenza H5N1, Ck HK Yu22/02 (Influenza A virus Ck/HK/Yu22/02 (H5N1))
Assay: cell-based or functional assay

B1: 10F7 single chain antibody (scFv)
scFv: QVQLQQPGAELVKPGASVKLSCKASGYTFTSYWMHWVKQRPGQGLEWIGEIDPSDSYTNYNQKFKGKATLTVDKSSSTAYMQLSSLTSEDSAVYYCARGGTGDFHYAMDYWGQGTSVTVSSGGGGSDILMTQSPSSMSVSLGDTVSITCHASQGISSNIGWLQQKPGKSFKGLIYHGTNLEDGVPSRFSGSGSGADYSLTISSLESEDFADYYCVQYVQFPYTFGGGTKLEIKR
neutralization: dilution of 10F7 scFv (fold dilution): 64
